Assay results published in patent publication US20100151573A1 (published 2010).

Tests used:
[1] = molecular target: T1, Recombinant human P-selectin/Fc chimera covalently coupled to DSPE-PEG2000 maleimide and inserted into … (human, UniProt P16109 42-771, sulfhydryl groups introduced at primary amines with Traut's reagent (2-iminothiolane) and linked to the maleimide group of DSPE-PEG2000; positions not stated); test: perfusion of HL60 cells through nanoparticle coated microtube, microscopy
T1 construct: Bought rhP/Fc (R&D Systems); also called rhP/Fc-DSPE-PEG2000 maleimide; PS-DSPE-PEG NP; Fc part of the bought chimera not given
T1 sequence (looked up): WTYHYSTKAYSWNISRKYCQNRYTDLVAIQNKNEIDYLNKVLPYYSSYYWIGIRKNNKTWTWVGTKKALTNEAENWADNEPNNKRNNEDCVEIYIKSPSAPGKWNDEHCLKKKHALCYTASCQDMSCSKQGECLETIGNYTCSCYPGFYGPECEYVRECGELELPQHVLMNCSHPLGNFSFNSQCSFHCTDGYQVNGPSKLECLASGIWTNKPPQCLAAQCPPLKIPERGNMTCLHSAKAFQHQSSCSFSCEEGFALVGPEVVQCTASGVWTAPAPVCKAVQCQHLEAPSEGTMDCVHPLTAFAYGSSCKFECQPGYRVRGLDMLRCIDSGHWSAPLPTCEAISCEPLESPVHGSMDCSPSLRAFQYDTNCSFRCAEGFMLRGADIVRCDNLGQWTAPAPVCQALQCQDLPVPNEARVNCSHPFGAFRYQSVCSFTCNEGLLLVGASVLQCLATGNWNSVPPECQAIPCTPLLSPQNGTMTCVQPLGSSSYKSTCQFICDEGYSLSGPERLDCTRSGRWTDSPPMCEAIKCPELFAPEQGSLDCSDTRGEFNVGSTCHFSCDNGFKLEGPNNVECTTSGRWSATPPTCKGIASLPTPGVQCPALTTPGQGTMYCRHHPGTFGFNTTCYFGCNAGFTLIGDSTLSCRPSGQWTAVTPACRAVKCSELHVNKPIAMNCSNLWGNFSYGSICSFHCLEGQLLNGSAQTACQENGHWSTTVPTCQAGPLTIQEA
Method: P-selectin nanoparticles were coated onto the surface of microrenathane tubing for 2 h at RT, and then perfusion experiments conducted. (a) and (b) were taken before perfusion, (c) and (d) were taken after perfusion but before the cells were released. (e) and (f) were taken after the adherent cells were released from the microtubing. In (g) and (h), HL60 cells were perfused through the P-selectin coated tube. In (i) and (j), cells were pre-incubated with anti-PSGL-1 for 1 h at RT and then perfused through the P-selectin coated tube. In (k) and (l), the perfused cells were MCF7. In (m) and (n), the P-selectin nanoparticles were incubated with anti-P-selectin for 1 h at RT and then applied to the microtube coating. In (o) and (p), P-selectin was replaced with IgG to construct the coating nanoparticles. The pictures were taken after cellular perfusion but before the cells were released from the surface. [III]. Nanoparticles alone could not (q, r, s) but P-selectin nanoparticles could (t, u, v) deliver Cy3-siRNA into HL60 cells under rolling conditions in the microtubing. q and t were taken in epifluorescence mode, r and u were taken in brightfield mode, and s and v are the merge of q and r, and […]. TRITC represents Tetramethyl Rhodamine Iso-Thiocyanate filter. […]

[2] = molecular target: T2, Recombinant human P-selectin/Fc chimera (rhP/Fc), not conjugated, adsorbed on microtubing (human, UniProt P16109 42-771); test: perfusion of HL60 cells through rhP/Fc coated microtube
T2 construct: Microtubing pre-incubated with rhP/Fc at 60 ug/ml in PBS for 2 h, then coated with non-targeting nanoparticles; Fc part of the bought chimera not given
T2 sequence (looked up): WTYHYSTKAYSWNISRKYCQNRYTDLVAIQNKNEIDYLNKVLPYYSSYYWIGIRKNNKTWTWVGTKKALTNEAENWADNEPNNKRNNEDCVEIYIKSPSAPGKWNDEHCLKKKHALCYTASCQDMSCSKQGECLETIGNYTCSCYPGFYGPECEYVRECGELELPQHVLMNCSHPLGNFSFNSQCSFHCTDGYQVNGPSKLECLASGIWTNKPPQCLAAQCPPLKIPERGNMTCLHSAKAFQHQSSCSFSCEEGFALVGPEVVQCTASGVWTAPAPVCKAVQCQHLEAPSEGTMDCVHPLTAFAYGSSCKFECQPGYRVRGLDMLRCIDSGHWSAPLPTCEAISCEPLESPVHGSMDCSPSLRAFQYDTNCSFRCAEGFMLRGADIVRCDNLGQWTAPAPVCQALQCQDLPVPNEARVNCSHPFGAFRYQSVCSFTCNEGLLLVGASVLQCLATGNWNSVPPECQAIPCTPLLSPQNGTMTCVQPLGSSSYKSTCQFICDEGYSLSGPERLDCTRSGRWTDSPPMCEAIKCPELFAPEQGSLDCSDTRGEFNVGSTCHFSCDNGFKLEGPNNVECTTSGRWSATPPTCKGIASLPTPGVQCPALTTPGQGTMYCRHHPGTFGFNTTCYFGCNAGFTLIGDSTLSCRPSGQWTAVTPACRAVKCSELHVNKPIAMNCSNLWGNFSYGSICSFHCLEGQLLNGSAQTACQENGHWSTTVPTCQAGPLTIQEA

binding result [1]: binds
binding result [2]: binds
B1: P-selectin glycoprotein ligand-1 (PSGL-1) on HL60 cells (receptor, UniProt Q14242 42-412, looked up)
chain: QATEYEYLDYDFLPETEPPEMLRNSTDTTPLTGPGTPESTTVEPAARRSTGLDAGGAVTELTTELANMGNLSTDSAAMEIQTTQPAATEAQTTQPVPTEAQTTPLAATEAQTTRLTATEAQTTPLAATEAQTTPPAATEAQTTQPTGLEAQTTAPAAMEAQTTAPAAMEAQTTPPAAMEAQTTQTTAMEAQTTAPEATEAQTTQPTATEAQTTPLAAMEALSTEPSATEALSMEPTTKRGLFIPFSVSSVTHKGIPMAASNLSVNYPVGAPDHISVKQCLLAILILALVATIFFVCTVVLAVRLSRKGHMYPVRNYSPTEMVCISSLLPDGGEGPSATANGGLSKAKSPGLTPEPREDREGDDLTLHSFLP
notes: whole, on cells; also called P-selectin receptor; PSGL-1 receptors in HL60 cells
